This note sets out measurements from patent publication US10138280B2, “Polypeptides targeting glycosylated MUC2 proteins, methods of synthesis, their nucleic acids and uses thereof” (INSTITUT PASTEUR, priority 2011, dated 2018).

Assay [1] has as its system human neutrophil (PMN) granules. Kind of assay: Human neutrophil (PMN) granule staining. The assay is classed as cell-based. As to the method: FIG. 14. Staining of individual neutrophiles (white blood cells) in human blood sample. Cy5-MUB70 was incubated on ethanol 100% fixed blood sample. […] (Details are provided on the Figure). […] In particular, granules staining is achieved.
FIG. 15. Staining of individual neutrophiles (white blood cells) purified from fresh human blood sample. Cy5-MUB70 was incubated on PFA 4% fixed neutrophiles (PFA treatment for 15 min, wash 3 times in PBS). Signal was detected as dots distributed in neutrophile cytoplasms. (Staining with Dapi 1:1000 and EB1C5 1:1000 in PBS+10% FCS+0.1% Saponin). […] In particular, granules staining is achieved.
FIG. 29. Identification of Muc2 in neutrophile granules using MUB70-Cy5. Human neutrophil (PMN) granule staining using Cy5-MUB70. PMN were purified from healthy donor blood samples and fixed in the presence of 4% PFA. Fluorescent staining of human colonic mucus was performed by the addition of 1 μg/mL of Cy5-MUB70 (Red) with Dapi (1:100) (Blue) and 1:200 anti-Muc2 antibody (Green). Image acquisition was performed using a fluorescent confocal microscope (see Methods).
FIG. 31. Identification of Muc2 in neutrophile granules. Human neutrophil (PMN) granule staining using Cy5-MUB40-1, Cy5-MUB40-2, Cy5-MUB40-3, Cy5-MUB40-4 peptides. Schematic description of the Cy5-conjugated peptides. PMN were purified from healthy donor blood samples and fixed in the presence of 4% PFA. Fluorescent staining of human colonic mucus was performed by the addition of 1 μg/mL of the Cy5-conjugated peptides (Green) with Dapi (1:100) (Blue) and Phalloidin-RRX (1:1000) (Red). Image acquisition was performed using a fluorescent confocal microscope (see Methods).
The invention has also proven to be useful for the monitoring of neutrophile degranulation events, in particular by using MUB70 and/or MUB40 polypeptides or polypeptides sharing identity with MUB70 and/or MUB40 polypeptides, or fragments thereof, for labelling neutrophile granule(s).

For another assay, the system named is mouse colonic mucus. Put plainly: Mucus staining on fixed tissues, mouse colon. The conditions noted are these: fixed tissue, 1 μg/mL. As to the method: FIGS. 11A-11C. Mucus staining using Cy5-MUB70 on fixed tissues. (FIG. 11A) Guinea pig colon, (FIG. 11B) rabbit ileum and (FIG. 11C) mouse colon were fixed in PFA 4%. Immunofluorescent staining was performed using Cy5-MUB70 (1 μg/mL) (blue). Actin is stained in red (Phall.-RRX), Muc2 is stained in green (α-Muc2). Observations were performed using a confocal microscope. Bar is 50 μm.
Ex vivo human colon samples were obtained from Dr. E. Labruyère (Institut Pasteur) and tissue processing was performed as described previously and stored in serum free RMPI media (surgical procedure is described herein). Human mucinous carcinoma formamide fixed samples were obtained from Dr. T. Lazure (Hôpitaux Universitaires Paris-Sud, Kremlin-Bicêtre) and Pr. I. Sobhani (Hôpital Henri Mondor, Créteil). Rabbit colon and ileum samples were collected on naïve New Zealand white rabbits weighting 2.5-3 kg and fixed in PFA 3%. Same procedure was applied on intestine samples collected on guinea pigs (Charles River) and C57/B6 mice (Janvier).
Following PFA 4% or Carnoy fixation, as indicated, samples were washed in PBS, incubated at 4° C. in PBS containing 12% sucrose for 90 min, then in PBS with 18% sucrose overnight, and frozen in OCT (Sakura) on dry ice. 7 μm sections were obtained using a cryostat CM-3050 (Leica). […]

For a further assay, the system named is rabbit colonic mucus. Kind of assay: Mucus staining on fixed tissues, rabbit colon. Here is the method:
FIGS. 8A-8D. (FIG. 8A) Cell toxicity of Cy5-MUB70 tested on HT-29-MTX and Hela epithelial cells. Cell survival was assessed using Sytoxgreen dye on cultures exposed to 1 μg/mL Cy5-MUB70 from 0 to 10 h, as indicated. NS indicates P>0.05 (Student's T-test). (FIG. 8B) Rabbit colonic and ileal mucus staining on fixed tissues (PFA 4%), using Cy5-MUB70 (1 μg/mL) (blue). Actin is stained in red (Phall.-RRX). Bar is 50 μm. (FIG. 8C) Human ex vivo colon sample was incubated for 2 h with 1 μg/mL Cy5-MUB70 in a serum-free media. Resulting fluorescent staining was assessed using a two-photons microscope (see Methods). Z-projection, performed using ImageJ software, allows 3D localization of Cy5-MUB70 fluorescence signal. Bar is 100 μm. Colon scheme: firmly (f) and loosely (I) attached colonic mucus layers are represented at the surface of the epithelium (e). (FIG. 8D) Kinetics of colonic mucus with Cy5-MUB70. […] Human tissue autofluorescence is detected in the same red channel as Cy5.
FIGS. 9A-9B. (FIG. 9A) Co-localization of Muc2 (green) and Cy5-MUB (blue) performed by immunofluorescent detection on human mucus extract collected on ex vivo tissues using an epifluorescent microscope. Bar is 50 μm. (FIG. 9B) Co-localization of Muc2 (green) and Cy5-MUB (blue) observed on fixed (PFA 4%) rabbit colon samples. Actin is stained in red (Phall.RRX). Observations are performed using a confocal microscope. […]

B1: Cy5-MUB70: Cy5-labelled MUB70 polypeptide, labelled via Cy5 maleimide on N-terminal cysteine (conjugate)
peptide: CVHVQYIDGETDQMLRQDDLDGYTDETIPYSTAEGIKKFEGDGYELFKDNFPAGEKFDNDDTNDQFYTVIF
In the case of B1, the PMN granule staining entry in assay [1] (PMN purified from human blood, fixed in 4% PFA, 1 μg/mL) is “binding specifically a neutrophile granule component”. The “neutrophile staining in human blood sample” value in assay [1] (ethanol 100% fixed blood sample) is given as “Signal was detected as diffused in neutrophile cytoplasm”. Further, the colonic mucus staining entry with mouse colonic mucus is reported as “not stained”; in the assay on rabbit colonic mucus (rabbit colon, fixed tissue, 1 μg/mL) it was “confirmed”. Moreover, the “colocalization with Muc2” value in the assay on rabbit colonic mucus (fixed rabbit colon samples) was “colocalization detection of Muc2 and Cy5-MUB70”.
